In patent US20070015228A1:

Target: normal human IgG (Zymed) (human)
Assay: ELISA, 8A3 coated on plate, anti-human IgG Fc-HRP detection

fold (binding to normal human IgG against humanized anti-CD20 IgG): < 50000 fold
B1: anti-idiotypic antibody 8A3 (antibody, V domains shown)
VH: QVQLQQSGAELAKPGASVKMSCKASGYNFTTYWMHWVKQRPGQGLEWIGYINPSTDYTEYNQKFKYKATLTADKSSSTAYIQLSSLTSEDSAVYYCARWWDYDWYFDVWGAGTPLTVSS
VL: DIVMTQSQEFMSTSVGDRVSVTCKASQTVDTNVAWYQQKLGQSPKPLIYSASYRCSGVPDRFTGSGSRTDFTLTITNVQSEDLAEYFCQQYHSFPWTFGGGTKVEIKR
